# IntAct's records for PubMed 17380122
# B1: Regulator of G-protein signaling 12 (Mus musculus), Q8CGE9 (parent)
# chain: MYRAGEPGKRQPGPAPPRVRSVEVARGRAGYGFTLSGQAPCVLSCVMRGSPADFVGLRAGDQILAINEINVKKASHEDVVKLIGKCSGVLHMVIAEGTSHVESCSSDEEGGLYEGKGWLRPKLDSKALGINRAERVVEEVQSGGIFNMIFESSSLCASGPEPLKLKQRSLSESAALRLDAGQAGLCAPHPSMLSKEDISKVINDDSVFTVGLDSHDDFGLDASILNVAMVVGYLGSIELPSTSSNLEHDSLQAIRGCMRRLRAEQKIHSLVTMKVMHDCVQLVTDRAGVVAEYPAEKLAFSAVCPDDRRFFGLVTMQTNDDGGLAQEDEGALRTSCHVFMVDPDLFHHKIHQGIARRFGFACTADPDTSGCLEFPASSLPVLQFISVLYRDMGELIEGVRARAFLDGDADAHQNNSTSSNSDSGIGNFNQEEKSNRVLVVDLGGGSSRHGQGSSPGWESGGGRGSQPWSAPWNGAFCHDSEAGSPLETSPNTDRFWDLTKHSGPVSHMEVPPATLRSSIPPSKRGAAGSSCGFNQRWLPVHVLQEWQCGHASDQESYTDSTDGWSSVNCGTLPPPMSKIPADRYRVEGSFAQAPLSTQKRDWSRKAFGMQNLFGPHRNVRKTKEDKKSSKLGRGVALAQTSQRTSARRSFGRSRRFSITRSLDDLESATVSDGELTGADLKDCISNNSLSSNASLPSVQSCRRLRERRVASWAVSFERLLQDPVGVRYFSDFLRKEFSEENILFWQACECFSHVPAHDKKELSYRAREIFSKFLCSKATTPVNIDSQAQLADDILNAPHPDMFKEQQLQIFNLMKFDSYTRFLKSQLYQECVLAEVEGRTLPDSQQVPSSPASKHSISSDHSNVSTPKKLSGKSKSGRSLNEDVGEEDSEKKRRGAFFSWSRSRSTGRSQKKKDHGDHAHDAPHANGGLCRRESQGSVSSAGSLDLSEACRTSALEKDKAAKHCCVHLPDGTSCVVAVKSGFSIKEILSGLCERHGINGAAVDLFLVGGDKPLVLHQDSSILATRDLRLEKRTLFRLDLVPINRSVGLKAKPTKPVTEVLRPVVAKYGLDLGSLLVRLSGEKEPLDLGAPISSLDGQRVILEERDPSRGKVSTDKQKGAPVKQNSAVNSSPRNHLAMGEERTLGKSNSIKIRGENGKSARDPRLSKREESIAKIGKKKYQKINLDEAEEFFELISKAQSNRADDQRGLLRKEDLVLPEFLRLPAGSSELALSSPPPVKGYSKRAVTGHGQEGAAQTEESYSDSPATSPASAQSPCSAYSPGSAHSPGSAHSTPGPPGTTQPGEKPTKPSCVSMVQEGTTQAWRRLSPEMEAGGIQTVEDEQVADLTLMGEGDISSPNSTLLPPPPTPQDTPGPPRPGTSRF
# Variants of: B1
# Settings: with rash_rat Hras
row,Variant,effect of a mutation on the interaction
1,H995L,decreasing interaction

# Variants of: B1
# Settings: with rasn_rat Nras
row,Variant,effect of a mutation on the interaction
1,H995L,decreasing interaction
